Source: publication PMC4174979 (DNA repair, 2014)

B1: BLM_(95–294) (domain or fragment, human, UniProt P54132 95-294, looked up)
chain: AGQETQRGGSKSLLPDFLQTPKEVVCTTQNTPTVKKSRDTALKKLEFSSSPDSLSTINDWDDMDDFDTSETSKSFVTPPQSHFVRVSTAQKSKKGKRNFFKAQLYTTNTVKTDLPPPSSESEQIDLTEEQKDDSEWLSSDVICIDDGPIAEVHINEDAQESDSLKTHLEDERDNSEKKKNLEEAELHSTEKVPCIEFDDD
B2: Sgs1_(157–257) (domain or fragment, S. cerevisiae, UniProt P35187 157-257, looked up)
chain: NKSVIDNSSIGKQLENDIKLEVIRLQGSLIMALKEQSKLLLQKCSIIESTSLSEDAKRLQLSRDIRPQLSNMSIRIDSLEKEIIKAKKDGMSKDQSKGRSQ
B3: Sgs1_(103–322) (domain or fragment, S. cerevisiae, UniProt P35187 103-322, looked up)
chain: ADVPMVDIPASTSVVSNPRTPNGSKTHNFNTFRPHMASSLVENDSSRNLGSRNNNKSVIDNSSIGKQLENDIKLEVIRLQGSLIMALKEQSKLLLQKCSIIESTSLSEDAKRLQLSRDIRPQLSNMSIRIDSLEKEIIKAKKDGMSKDQSKGRSQVSSQDDNIISSILPSPLEYNTSSRNSNLTSTTATTVTKALAITGAKQNITNNTGKNSNNDSNNDD

Target: the molecule itself
Test: SEC

Stoichiometry N, 6:
B1
B2
B3
